According to patent US20230190812A1 (published 2023):

Target: T1, MAGE-A4 (MA4-230) peptide on HLA-A*02:01 (human)
T1 peptide: GVYDGREHTV
Assay: multimer staining

B1: MA4-230 H1 TCR (TCR, V domains shown)
Valpha: LAKTTQPISMDSYEGQEVNITCSHNNIATNDYITWYQQFPSQGPRFIIQGYKTKVTNEVASLFIPADRKSSTLSLPRVSLSDTAVYYCLVVEGNRDDKIIFGKGTRLHILP
Vbeta: NAGVTQTPKFRVLKTGQSMTLLCAQDMNHEYMYWYRQDPGMGLRLIHYSVGEGTTAKGEVPDGYNVSRLKKQNFLLGLESAAPSQTSVYFCASPPTPSSYNEQFFGPGTRLTVL
B1: recognises.
